Measured values as given in PMC11615311 (Nature Communications, 2024).

Columns and labels:
[1] = target: UAF1-USP1 complex (purified) (UniProt Q8TAF3 1-677; O94782 1-785); test: pull-down
[2] = target: BAZ1B-SMARCA5 complex (purified) (human | , UniProt Q9UIG0 1-1483; O60264 1-1052); test: pull-down
Chain of BAZ1B-SMARCA5 complex (purified) (Q9UIG0 whole entry, chain 1 of 2): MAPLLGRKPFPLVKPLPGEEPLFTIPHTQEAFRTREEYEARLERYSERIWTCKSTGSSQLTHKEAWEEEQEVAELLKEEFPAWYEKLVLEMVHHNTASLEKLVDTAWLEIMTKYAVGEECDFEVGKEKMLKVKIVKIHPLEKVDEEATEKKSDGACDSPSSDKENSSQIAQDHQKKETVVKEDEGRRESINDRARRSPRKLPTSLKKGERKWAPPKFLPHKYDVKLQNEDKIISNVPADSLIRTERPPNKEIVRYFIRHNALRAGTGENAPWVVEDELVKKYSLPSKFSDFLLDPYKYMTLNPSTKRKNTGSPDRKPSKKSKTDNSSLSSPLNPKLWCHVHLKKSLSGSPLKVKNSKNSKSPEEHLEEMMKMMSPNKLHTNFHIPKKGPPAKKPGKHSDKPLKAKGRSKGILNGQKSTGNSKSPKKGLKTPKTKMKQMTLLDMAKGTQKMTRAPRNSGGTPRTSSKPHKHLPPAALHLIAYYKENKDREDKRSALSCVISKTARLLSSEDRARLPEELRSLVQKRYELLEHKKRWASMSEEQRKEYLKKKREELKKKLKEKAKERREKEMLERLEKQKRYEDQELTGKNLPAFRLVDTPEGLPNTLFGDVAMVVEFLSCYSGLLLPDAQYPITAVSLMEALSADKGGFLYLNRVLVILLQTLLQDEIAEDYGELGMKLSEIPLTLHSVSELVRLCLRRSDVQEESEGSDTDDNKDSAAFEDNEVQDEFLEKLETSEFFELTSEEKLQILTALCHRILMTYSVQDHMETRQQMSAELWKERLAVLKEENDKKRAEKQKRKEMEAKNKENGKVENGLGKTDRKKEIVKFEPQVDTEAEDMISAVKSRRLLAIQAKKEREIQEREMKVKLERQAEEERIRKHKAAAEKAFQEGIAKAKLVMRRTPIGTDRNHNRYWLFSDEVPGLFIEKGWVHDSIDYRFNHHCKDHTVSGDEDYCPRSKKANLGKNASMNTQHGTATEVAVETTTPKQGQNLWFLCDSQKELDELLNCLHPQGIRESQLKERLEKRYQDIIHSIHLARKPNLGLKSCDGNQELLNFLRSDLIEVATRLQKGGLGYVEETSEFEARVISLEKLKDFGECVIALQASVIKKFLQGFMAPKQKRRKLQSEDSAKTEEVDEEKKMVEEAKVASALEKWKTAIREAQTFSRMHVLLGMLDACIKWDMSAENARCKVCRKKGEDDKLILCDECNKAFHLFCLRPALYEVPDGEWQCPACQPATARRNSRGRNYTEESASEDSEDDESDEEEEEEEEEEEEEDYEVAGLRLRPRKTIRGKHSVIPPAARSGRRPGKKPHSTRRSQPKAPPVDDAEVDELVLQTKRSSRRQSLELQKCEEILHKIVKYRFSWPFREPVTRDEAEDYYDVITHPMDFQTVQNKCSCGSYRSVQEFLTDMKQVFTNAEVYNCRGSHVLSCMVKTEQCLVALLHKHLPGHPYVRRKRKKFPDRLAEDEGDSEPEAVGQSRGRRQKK
Chain of BAZ1B-SMARCA5 complex (purified) (O60264 whole entry, chain 2 of 2): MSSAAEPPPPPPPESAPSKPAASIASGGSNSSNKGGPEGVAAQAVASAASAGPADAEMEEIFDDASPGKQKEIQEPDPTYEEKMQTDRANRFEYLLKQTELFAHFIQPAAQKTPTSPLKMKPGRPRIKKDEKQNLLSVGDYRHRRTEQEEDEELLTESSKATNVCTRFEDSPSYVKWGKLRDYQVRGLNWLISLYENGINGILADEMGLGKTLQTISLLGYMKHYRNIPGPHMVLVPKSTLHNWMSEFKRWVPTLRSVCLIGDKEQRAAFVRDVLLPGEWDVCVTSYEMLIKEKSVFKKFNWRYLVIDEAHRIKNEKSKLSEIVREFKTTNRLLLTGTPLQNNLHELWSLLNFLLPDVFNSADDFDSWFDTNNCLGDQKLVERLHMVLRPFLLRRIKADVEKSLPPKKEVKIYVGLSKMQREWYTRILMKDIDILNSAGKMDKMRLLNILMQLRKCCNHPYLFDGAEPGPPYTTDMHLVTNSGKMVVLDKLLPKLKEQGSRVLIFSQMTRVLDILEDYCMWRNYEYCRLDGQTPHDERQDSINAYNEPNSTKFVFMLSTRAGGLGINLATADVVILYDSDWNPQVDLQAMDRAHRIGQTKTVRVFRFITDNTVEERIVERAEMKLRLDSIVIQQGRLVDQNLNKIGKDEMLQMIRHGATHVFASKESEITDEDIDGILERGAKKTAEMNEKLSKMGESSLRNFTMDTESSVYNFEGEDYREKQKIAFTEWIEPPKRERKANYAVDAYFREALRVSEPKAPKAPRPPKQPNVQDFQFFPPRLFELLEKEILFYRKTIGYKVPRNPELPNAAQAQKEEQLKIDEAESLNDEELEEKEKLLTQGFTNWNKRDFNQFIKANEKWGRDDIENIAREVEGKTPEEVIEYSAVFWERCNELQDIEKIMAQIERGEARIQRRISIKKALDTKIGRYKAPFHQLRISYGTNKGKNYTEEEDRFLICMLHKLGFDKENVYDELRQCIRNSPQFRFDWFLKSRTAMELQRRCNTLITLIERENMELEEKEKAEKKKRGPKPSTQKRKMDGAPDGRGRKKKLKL

Chain of UAF1-USP1 complex (purified) (Q8TAF3 whole entry, chain 1 of 2): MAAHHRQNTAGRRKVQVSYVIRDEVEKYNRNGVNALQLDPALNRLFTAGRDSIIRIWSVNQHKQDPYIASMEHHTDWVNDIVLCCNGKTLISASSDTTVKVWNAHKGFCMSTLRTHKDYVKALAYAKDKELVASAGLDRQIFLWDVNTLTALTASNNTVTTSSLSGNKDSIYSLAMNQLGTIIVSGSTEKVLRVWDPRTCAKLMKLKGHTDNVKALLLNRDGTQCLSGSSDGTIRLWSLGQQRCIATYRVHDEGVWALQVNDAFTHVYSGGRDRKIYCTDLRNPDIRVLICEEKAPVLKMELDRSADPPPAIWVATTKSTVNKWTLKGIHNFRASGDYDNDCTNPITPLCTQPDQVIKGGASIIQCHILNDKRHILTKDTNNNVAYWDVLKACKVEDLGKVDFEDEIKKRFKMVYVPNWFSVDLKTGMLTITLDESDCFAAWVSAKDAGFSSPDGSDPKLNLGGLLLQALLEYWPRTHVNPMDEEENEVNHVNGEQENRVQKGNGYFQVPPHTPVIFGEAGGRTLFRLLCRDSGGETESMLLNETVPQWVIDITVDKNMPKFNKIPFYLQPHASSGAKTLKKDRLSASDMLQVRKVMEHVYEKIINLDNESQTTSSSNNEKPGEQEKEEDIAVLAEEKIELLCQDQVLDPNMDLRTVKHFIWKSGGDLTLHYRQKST
Chain of UAF1-USP1 complex (purified) (O94782 whole entry, chain 2 of 2): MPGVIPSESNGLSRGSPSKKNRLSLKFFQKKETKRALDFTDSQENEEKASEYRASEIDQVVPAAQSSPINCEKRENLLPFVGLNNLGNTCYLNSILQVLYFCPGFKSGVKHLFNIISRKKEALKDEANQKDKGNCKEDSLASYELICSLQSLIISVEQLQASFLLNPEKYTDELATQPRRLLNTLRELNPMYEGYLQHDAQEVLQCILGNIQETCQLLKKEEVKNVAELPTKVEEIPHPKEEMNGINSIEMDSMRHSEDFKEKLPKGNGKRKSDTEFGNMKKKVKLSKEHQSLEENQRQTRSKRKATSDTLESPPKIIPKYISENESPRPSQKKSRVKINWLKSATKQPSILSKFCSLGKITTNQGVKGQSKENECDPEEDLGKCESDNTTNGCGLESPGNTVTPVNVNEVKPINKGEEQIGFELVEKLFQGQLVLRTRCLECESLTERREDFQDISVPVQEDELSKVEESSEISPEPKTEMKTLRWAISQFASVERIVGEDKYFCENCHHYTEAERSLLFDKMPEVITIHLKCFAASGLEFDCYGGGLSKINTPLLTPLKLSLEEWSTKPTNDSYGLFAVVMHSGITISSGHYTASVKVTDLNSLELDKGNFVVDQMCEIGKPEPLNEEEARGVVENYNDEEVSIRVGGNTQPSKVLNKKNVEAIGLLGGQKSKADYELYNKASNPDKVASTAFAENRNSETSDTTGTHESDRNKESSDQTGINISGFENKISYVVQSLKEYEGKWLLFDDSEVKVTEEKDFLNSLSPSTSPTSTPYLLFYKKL

- binding result [1]: binds
- binding result [2]: binds
B1: MBP-tagged ATAD5 (1–603) (domain or fragment, human, UniProt Q96QE3 1-603, looked up)
chain: MVGVLAMAAAAAPPPVKDCEIEPCKKRKKDDDTSTCKTITKYLSPLGKTRDRVFAPPKPSNILDYFRKTSPTNEKTQLGKECKIKSPESVPVDSNKDCTTPLEMFSNVEFKKKRKRVNLSHQLNNIKTENEAPIEISSDDSKEDYSLNNDFVESSTSVLRYKKQVEVLAENIQDTKSQPNTMTSLQNSKKVNPKQGTTKNDFKKLRKRKCRDVVDLSESLPLAEELNLLKKDGKDTKQMENTTSHANSRDNVTEAAQLNDSIITVSYEEFLKSHKENKVEEIPDSTMSICVPSETVDEIVKSGYISESENSEISQQVRFKTVTVLAQVHPIPPKKTGKIPRIFLKQKQFEMENSLSDPENEQTVQKRKSNVVIQEEELELAVLEAGSSEAVKPKCTLEERQQFMKAFRQPASDALKNGVKKSSDKQKDLNEKCLYEVGRDDNSKKIMENSGIQMVSKNGNLQLHTDKGSFLKEKNKKLKKKNKKTLDTGAIPGKNREGNTQKKETTFFLKEKQYQNRMSLRQRKTEFFKSSTLFNNESLVYEDIANDDLLKVSSLCNNNKLSRKTSIPVKDIKLTQSKAESEASLLNVSTPKSTRRSGRISST
